US7199217B2, “Amidated glucagon-like peptide-1” (Eli Lilly and Company, priority 2000, dated 2007)

Experiments:
[1] = Aggregation time in solution, turbidity at 350 nm while stirred; format: physicochemical; conditions: 37° C.; 0.3 mg/mL in 10 mM citrate, 10 mM phosphate, 150 mM NaCl, pH 7.4 to 7.5, stirred
Method: The peptides in solution were stirred at elevated temperature in a suitable buffer while recording turbidity at 350 nm as a function of time. Time to the onset of aggregation was measured to quantify the potential of each GLP-1 molecule to aggregate under these stressed conditions.
In general, the peptides in solution were stirred at elevated temperature in a suitable buffer while recording turbidity at 350 nm as a function of time. Time to the onset of aggregation was measured to quantify the potential of a given GLP molecule to aggregate under these stressed conditions.
The GLP-1 peptides were first dissolved under alkaline conditions (pH 10.5) for 30 minutes to dissolve any pre-aggregated material. The solution was then adjusted to pH 7.4 and filtered. Specifically, 4 mg of a lyophilized GLP-1 peptide was dissolved in 3 mL of 10 mM phosphate/10 mM citrate. The pH was adjusted to 10.0–10.5 and held for 30 minutes. The solution was adjusted with HCl to pH 7.4 and filtered through a suitable filter, for example a Millex® GV syringe filter (Millipore Corporation, Bedford, Mass.). This solution was then diluted to a final sample containing 0.3 mg/mL protein in 10 mM citrate, 10 mM phosphate, 150 mM NaCl, and adjusted to pH 7.4 to 7.5. […] Every five minutes the turbidity of the solution was measured at 350 nm on an AVIV Model 14DS UV-VIS spectrophotometer (Lakewood, N.J.). […]

human GLP-1 receptor = molecular target: T1, human GLP-1 receptor (Homo sapiens, UniProt P43220); experiment: In vitro activity, HEK-293 Aurora CRE-BLAM cells, β-lactamase reporter; format: cell-based; conditions: comparison with the acid form; test not specified
T1 construct: expressed in transfected cells; host or cells: HEK-293 Aurora CRE-BLAM cells
T1 sequence (P43220 24-463): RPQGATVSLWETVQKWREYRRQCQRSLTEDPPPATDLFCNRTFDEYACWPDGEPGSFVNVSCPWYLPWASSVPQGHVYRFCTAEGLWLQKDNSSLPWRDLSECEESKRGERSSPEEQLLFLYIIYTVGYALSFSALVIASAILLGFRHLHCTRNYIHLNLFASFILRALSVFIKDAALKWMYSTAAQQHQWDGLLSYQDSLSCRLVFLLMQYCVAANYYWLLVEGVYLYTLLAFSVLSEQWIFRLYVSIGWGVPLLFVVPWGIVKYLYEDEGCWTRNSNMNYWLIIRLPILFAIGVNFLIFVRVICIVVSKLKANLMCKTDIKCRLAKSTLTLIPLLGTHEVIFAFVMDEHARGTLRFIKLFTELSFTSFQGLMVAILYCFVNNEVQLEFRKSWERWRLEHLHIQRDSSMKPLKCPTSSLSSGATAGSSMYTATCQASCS
Source text: The day after seeding, the medium is replaced with plasma free medium.

Substance	Time to onset of aggregation [1]	Potency compared to the acid form Val^8-GLP-1(7–37)OH (in words) (human GLP-1 receptor)
Val^8-GLP-1(7–37)NH2 (HXEGTFTSDVSSYLEXQAAKXFIXWLVKGRX; C-terminal amide) [GLP-1(7–37)OH wherein Ala at position 8 has been substituted with Val and Gly at position 37 has been amidated]	approximately 23 hours	
Val^8-GLP-1(7–36)NH2		slightly less potent than the acid form
